Test results from patent publication US20230220589A1.
Blank lines part the entries; values can stand above or below the binder they belong to.

How the values were obtained:
[1] = target: M44-modified D NTAA target peptides; test: encoding assay; P2 A;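 also: fraction of recording tags encoded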
[2] = target: M44-modified E NTAA target peptides; test: encoding assay; P2 A;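 also: fraction of recording tags encoded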
[3] = target: M44-modified S NTAA target peptides; test: encoding assay; P2 A
[4] = target: M44-modified T NTAA target peptides; test: encoding assay; P2 A;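 also: fraction of recording tags encoded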
[5] = target: M44-modified P NTAA target peptides; test: encoding assay; P2 I;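 also: fraction of recording tags encoded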
[6] = target: M44-modified G NTAA target peptides (M44-G-P2-peptide); test: encoding assay; P2 P;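 also: fraction of recording tags encoded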
[7] = target: M44-modified P NTAA target peptides; test: encoding assay; P2 P;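 also: fraction of recording tags encoded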
[8] = target: M44-modified T NTAA target peptides; test: encoding assay; P2 P;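 also: fraction of recording tags encoded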
[9] = target: M44-modified V NTAA target peptides; test: encoding assay; P2 P;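 also: fraction of recording tags encoded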
[10] = target: M44-modified W NTAA target peptides; test: encoding assay; P2 P;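 also: fraction of recording tags encoded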
[11] = target: M17-modified A NTAA target peptides; test: encoding assay; P2 A;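 also: fraction of recording tags encoded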
[12] = target: M17-modified D NTAA target peptides; test: encoding assay; P2 A;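 also: fraction of recording tags encoded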
[13] = target: M17-modified E NTAA target peptides; test: encoding assay; P2 A;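 also: fraction of recording tags encoded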
[14] = target: M17-modified F NTAA target peptides; test: encoding assay; P2 A;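 also: fraction of recording tags encoded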
[15] = target: M17-modified G NTAA target peptides; test: encoding assay; P2 A;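 also: fraction of recording tags encoded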
[16] = target: M17-modified H NTAA target peptides; test: encoding assay; P2 A;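 also: fraction of recording tags encoded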
[17] = target: M17-modified I NTAA target peptides; test: encoding assay; P2 A;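 also: fraction of recording tags encoded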
[18] = target: M17-modified L NTAA target peptides; test: encoding assay; P2 A;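 also: fraction of recording tags encoded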
[19] = target: M17-modified M NTAA target peptides; test: encoding assay; P2 A;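 also: fraction of recording tags encoded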
[20] = target: M17-modified N NTAA target peptides; test: encoding assay; P2 A;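 also: fraction of recording tags encoded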
[21] = target: M17-modified P NTAA target peptides; test: encoding assay; P2 A;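 also: fraction of recording tags encoded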
[22] = target: M17-modified Q NTAA target peptides; test: encoding assay; P2 A;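 also: fraction of recording tags encoded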
[23] = target: M17-modified T NTAA target peptides; test: encoding assay; P2 A;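 also: fraction of recording tags encoded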
[24] = target: M17-modified V NTAA target peptides; test: encoding assay; P2 A;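 also: fraction of recording tags encoded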
[25] = target: M17-modified W NTAA target peptides; test: encoding assay; P2 A;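 also: fraction of recording tags encoded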
[26] = target: M17-modified Y NTAA target peptides (M17-Y-P2-peptide); test: encoding assay; P2 A;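 also: fraction of recording tags encoded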
[27] = target: M17-modified A NTAA target peptides; test: encoding assay; P2 I;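 also: fraction of recording tags encoded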
[28] = target: M17-modified F NTAA target peptides; test: encoding assay; P2 I;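 also: fraction of recording tags encoded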
[29] = target: M17-modified G NTAA target peptides; test: encoding assay; P2 I;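 also: fraction of recording tags encoded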
[30] = target: M17-modified H NTAA target peptides; test: encoding assay; P2 I;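 also: fraction of recording tags encoded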
[31] = target: M17-modified I NTAA target peptides; test: encoding assay; P2 I;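 also: fraction of recording tags encoded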
[32] = target: M17-modified L NTAA target peptides; test: encoding assay; P2 I;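 also: fraction of recording tags encoded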
[33] = target: M17-modified M NTAA target peptides; test: encoding assay; P2 I;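 also: fraction of recording tags encoded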
[34] = target: M17-modified N NTAA target peptides; test: encoding assay; P2 I;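 also: fraction of recording tags encoded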
[35] = target: M17-modified P NTAA target peptides; test: encoding assay; P2 I;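 also: fraction of recording tags encoded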
[36] = target: M17-modified Q NTAA target peptides; test: encoding assay; P2 I;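 also: fraction of recording tags encoded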
[37] = target: M17-modified T NTAA target peptides; test: encoding assay; P2 I;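 also: fraction of recording tags encoded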
[38] = target: M17-modified A NTAA target peptides; test: encoding assay; P2 P;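 also: fraction of recording tags encoded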
[39] = target: M17-modified D NTAA target peptides; test: encoding assay; P2 P;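 also: fraction of recording tags encoded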
[40] = target: M17-modified E NTAA target peptides; test: encoding assay; P2 P;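 also: fraction of recording tags encoded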
[41] = target: M17-modified F NTAA target peptides; test: encoding assay; P2 P;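 also: fraction of recording tags encoded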
[42] = target: M17-modified G NTAA target peptides; test: encoding assay; P2 P;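 also: fraction of recording tags encoded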
[43] = target: M17-modified H NTAA target peptides; test: encoding assay; P2 P;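 also: fraction of recording tags encoded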
[44] = target: M17-modified I NTAA target peptides; test: encoding assay; P2 P;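 also: fraction of recording tags encoded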
[45] = target: M17-modified L NTAA target peptides; test: encoding assay; P2 P;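 also: fraction of recording tags encoded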
[46] = target: M17-modified M NTAA target peptides; test: encoding assay; P2 P;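 also: fraction of recording tags encoded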
[47] = target: M17-modified N NTAA target peptides; test: encoding assay; P2 P;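 also: fraction of recording tags encoded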
[48] = target: M17-modified P NTAA target peptides; test: encoding assay; P2 P;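 also: fraction of recording tags encoded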
[49] = target: M17-modified Q NTAA target peptides; test: encoding assay; P2 P;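 also: fraction of recording tags encoded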
[50] = target: M17-modified S NTAA target peptides; test: encoding assay; P2 P;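 also: fraction of recording tags encoded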
[51] = target: M17-modified T NTAA target peptides; test: encoding assay; P2 P;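 also: fraction of recording tags encoded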
[52] = target: M17-modified V NTAA target peptides; test: encoding assay; P2 P;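 also: fraction of recording tags encoded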
[53] = target: M17-modified W NTAA target peptides; test: encoding assay; P2 P;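 also: fraction of recording tags encoded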
[54] = target: M17-modified Y NTAA target peptides (M17-Y-P2-peptide); test: encoding assay; P2 P;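 also: fraction of recording tags encoded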

B2: engineered M44-A binder (SEQ ID NO: 42) (designed binder, not shown: small tags and cut ends; large carriers)
chain: QVSVQPNFQQDKFLGRWFVAGLASNSSWDREKVAALSGAKMVVAPATDGGLNVTRTMLRKNQCETYTGLLQPAGSLGSYSWRSPHPGSTGSESVVETDYDQYALVYGQGSKGPGEDLRAAALWSRTQTPRAELKEKFTAFSKAQGFTEDTIVFLPQTDKCMTEQ
- encoding yield [1]: 0.02
- encoding yield [2]: 0.02
- encoding yield [3]: 0.01
- encoding yield [4]: 0.01
- encoding yield [5]: 0.01
- encoding yield [6]: 0.01
- encoding yield [7]: 0.01
- encoding yield [8]: 0.01
- encoding yield [9]: 0.01
- encoding yield [10]: 0.01

B3: engineered M17-Y binder (SEQ ID NO: 61) (designed binder, not shown: small tags and cut ends; large carriers)
chain: TVPDRSEIAGKWYVVALASNTEFYLREKDWVKSAMARISFLGEDELKVSSAVPSPNGCYKVERTWKKTSDDGEVYNSRAAKLKVEVLDTDYKSYAVIYATRVKDGRTDHQMILYSRSPEVSPAATAIFRKLAGERNYTDEMVAMLPRQEECTVDEV
- encoding yield [11]: 0.02
- encoding yield [12]: 0.01
- encoding yield [13]: 0.01
- encoding yield [14]: 0.04
- encoding yield [15]: 0.02
- encoding yield [16]: 0.02
- encoding yield [17]: 0.02
- encoding yield [18]: 0.02
- encoding yield [19]: 0.02
- encoding yield [20]: 0.02
- encoding yield [21]: 0.01
- encoding yield [22]: 0.02
- encoding yield [23]: 0.01
- encoding yield [24]: 0.01
- encoding yield [25]: 0.04
- encoding yield [26]: 0.12
- encoding yield [27]: 0.02
- encoding yield [28]: 0.03
- encoding yield [29]: 0.01
- encoding yield [30]: 0.04
- encoding yield [31]: 0.05
- encoding yield [32]: 0.02
- encoding yield [33]: 0.01
- encoding yield [34]: 0.03
- encoding yield [35]: 0.01
- encoding yield [36]: 0.02
- encoding yield [37]: 0.01
- encoding yield [38]: 0.02
- encoding yield [39]: 0.02
- encoding yield [40]: 0.02
- encoding yield [41]: 0.12
- encoding yield [42]: 0.01
- encoding yield [43]: 0.03
- encoding yield [44]: 0.06
- encoding yield [45]: 0.05
- encoding yield [46]: 0.03
- encoding yield [47]: 0.01
- encoding yield [48]: 0.01
- encoding yield [49]: 0.02
- encoding yield [50]: 0.02
- encoding yield [51]: 0.01
- encoding yield [52]: 0.02
- encoding yield [53]: 0.02
- encoding yield [54]: 0.16

Other lines, results leading:

- encoding yield [1]: 0.02
- encoding yield [2]: 0.02
- encoding yield [3]: 0.01
- encoding yield [4]: 0.01
- encoding yield [5]: 0.01
- encoding yield [6]: 0.01
- encoding yield [7]: 0.01
- encoding yield [8]: 0.01
- encoding yield [9]: 0.02
- encoding yield [10]: 0.04
B1: engineered M44-L binder (SEQ ID NO: 31) (designed binder, not shown: small tags and cut ends; large carriers)
chain: QDSTQNLIPAPPLISVPLQPGFWTERFQGRWFLVGFAGNAVQKERQSRLTMQSLILELQEDNSYNITAINVRGQGCRYIISTLVPSSRPGQFTLGNIHSYPQIQSLDVQVADTDYDQFAMVFLQGTSENKQYFEVALAGRTKGLSDELKERFVSFAKSLGLKDNNIVFSVPTDQCIDN

- encoding yield [11]: 0.02
- encoding yield [12]: 0.02
- encoding yield [13]: 0.02
- encoding yield [14]: 0.09
- encoding yield [15]: 0.03
- encoding yield [16]: 0.02
- encoding yield [17]: 0.03
- encoding yield [18]: 0.04
- encoding yield [19]: 0.03
- encoding yield [20]: 0.03
- encoding yield [21]: 0.01
- encoding yield [22]: 0.02
- encoding yield [23]: 0.01
- encoding yield [24]: 0.02
- encoding yield [25]: 0.08
- encoding yield [26]: 0.24
- encoding yield [27]: 0.03
- encoding yield [28]: 0.05
- encoding yield [29]: 0.02
- encoding yield [30]: 0.04
- encoding yield [31]: 0.08
- encoding yield [32]: 0.05
- encoding yield [33]: 0.02
- encoding yield [34]: 0.03
- encoding yield [35]: 0.01
- encoding yield [36]: 0.03
- encoding yield [37]: 0.02
- encoding yield [38]: 0.02
- encoding yield [39]: 0.03
- encoding yield [40]: 0.02
- encoding yield [41]: 0.12
- encoding yield [42]: 0.02
- encoding yield [43]: 0.04
- encoding yield [44]: 0.07
- encoding yield [45]: 0.08
- encoding yield [46]: 0.03
- encoding yield [47]: 0.02
- encoding yield [48]: 0.01
- encoding yield [49]: 0.02
- encoding yield [50]: 0.04
- encoding yield [51]: 0.02
- encoding yield [52]: 0.03
- encoding yield [53]: 0.11
- encoding yield [54]: 0.28
B4: upgraded binder after additional maturation round (SEQ ID NO: 62) (designed binder, not shown: small tags and cut ends; large carriers)
chain: TVPDRSEIAGKWYVVALASNTEFYLRGKDRVKSAMVRISFQGEDELKVSSAVPSPNGCYKVERTWKKTSDDGEVYNSRAAKLKVEVLDTDYKSYAVIYATRVKDRRTDHQMILYSRSPDVSPAATAIFRKLAGERNYTDEMVAMLPRQEECTVDEV
